Experimental data published in patent US5763593.

Molecular target: TATA-binding protein (Saccharomyces cerevisiae (strain ATCC 204508 / S288c) (Baker's yeast)) (UniProt P13393)

amount required for 50% inhibition of in vitro transcription by RNA polymerase II holoenzyme: 0.5 pmol
Substance: purified yeast NC2 (DRAP1/Dr1) with epitope-tagged (FLAG) NC2α/DRAP1 subunit
